For 94 variants, protein stability index results are on record in the supplement of paper PMC10567573.

To fix the notation:
B1: TRAF3IP2 (parent)
chain: APWNYHYHCPGSPDHQVPYGHDYP
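Further: lentivirally expressed fusions sorted by FACS into six bins by GFP to DsRed ratio, PSI derived from sequencing read proportions per bin multiplied by bin number.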

In the data set the parent is B1. Description: protein stability index of a GFP-peptide fusion (GPS, HEK-293T) (PSI 1-6); higher = more stable. The following applies: c terminus: a fixed tail appended.
For APWNYHYHCPGCPDHQVPYGHDYP [S12C], the protein stability index amounted to 2.75. APWNYHYHCPGFPDHQVPYGHDYP [S12F]: the protein stability index came to 1.7. Take APWNYHYHCPGQPDHQVPYGHDYP [S12Q]: the protein stability index is 2.5. Regarding APWNYHYHCPGIPDHQVPYGHDYP [S12I], the protein stability index was 2.27. As for APWNYHYHCPGMPDHQVPYGHDYP [S12M], the protein stability index is 1.96. With APWNYHYHCPGAPDHQVPYGHDYP [S12A], the protein stability index is 2.07. For APWNYHYHCPGWPDHQVPYGHDYP [S12W], the protein stability index stood at 2. Turning to APWNYHYHCPGSPDHQVPYGHDYI [P24I], the protein stability index was determined as 1.72. As to APWNYHYHCPGSPDHQVPYGHDYF [P24F], the protein stability index was found to be 2.01.

Consider APWNYHYHCPGSPDHQVPYGHDYQ [P24Q], for which the protein stability index turned out to be 2.28. Consider APWNYHYHCPGSPDHQVPYGHDYT [P24T], for which the protein stability index was determined as 2.63. The figure for APWNYHYHCPGSPDHQVPYGHDYL [P24L] is 1.96. The figure for APWNYHYHCPGSPDHQVPYGHDYD [P24D] is 3.88; for APWNYHYHCPGSPDHQVPYGHDYN [P24N] it is 2.93. Turning to APWNYHYHCPGSPDHQVPYGHDYV [P24V], the protein stability index was 1.96. For the variant APWNYHYHCPGSPDHQVPYGHDYE [P24E], the protein stability index was 4.07. For APWNYHYHCPGSPDHQVPYGHDYK [P24K], the protein stability index was determined as 2.8. Take APWNYHYHCPGSPDHQEPYGHDYP [V17E]: the protein stability index came out at 2.95.

For the variant APWNYHYHCPGSPDHQSPYGHDYP [V17S], the protein stability index came out at 2.31. Consider APWNYHYHCPGSPDHQRPYGHDYP [V17R], for which the protein stability index was determined as 2.4. Turning to APWNYHYHCPGSPDHQAPYGHDYP [V17A], the protein stability index worked out at 2.06.

For the variant APWNYHYHCPGSPDHQDPYGHDYP [V17D], the protein stability index is 2.62. Regarding APWNYHYHCPGSPDHQMPYGHDYP [V17M], the protein stability index was 1.88. Turning to GPWNYHYHCPGSPDHQVPYGHDYP [A1G], the protein stability index stood at 3.39. The figure for TPWNYHYHCPGSPDHQVPYGHDYP [A1T] is 1.87; for EPWNYHYHCPGSPDHQVPYGHDYP [A1E] it is 2.91. The same measure for LPWNYHYHCPGSPDHQVPYGHDYP [A1L]: 2.08; for NPWNYHYHCPGSPDHQVPYGHDYP [A1N]: 2.32. As for APWNYHYHCPGSPDPQVPYGHDYP [H15P], the protein stability index stood at 2.23. For the variant APWNYHYHCPGSPDMQVPYGHDYP [H15M], the protein stability index turned out to be 2.02. APWNYHYHCPGSPDYQVPYGHDYP [H15Y]: the protein stability index was found to be 2.14. As for APWNYHYHCPGSPDLQVPYGHDYP [H15L], the protein stability index came to 1.95.

On to APWNYHYHCPGSPDAQVPYGHDYP [H15A], for which the protein stability index amounted to 2.1. As to APWNYHYHCPGSPDKQVPYGHDYP [H15K], the protein stability index is 2.65. On to APWNYHYHCPGSPDDQVPYGHDYP [H15D], for which the protein stability index was found to be 2.56.

In the case of APWNYHYHCPGSPDGQVPYGHDYP [H15G], the protein stability index came to 2.73. As to APWNYHYHCPGSPDFQVPYGHDYP [H15F], the protein stability index amounted to 1.65. The same measure for APWNYHYHCPGSPDHQVPYYHDYP [G20Y]: 2.15. As to APWNYHYHCPGSPDHQVPYTHDYP [G20T], the protein stability index came out at 2.66. Turning to APWNYHYHCPGSPDHQVPYCHDYP [G20C], the protein stability index was determined as 2.42.

With APWNYHYHCPGSPDHQVPYAHDYP [G20A], the protein stability index stood at 2.58. For APWNYHYHCPGSPDHQVPYRHDYP [G20R], the protein stability index was 2.45. APWNYHYHCPGSPDHQVPYKHDYP [G20K]: the protein stability index came out at 2.65. Consider APWNYHYHCPGSPDHQVPYPHDYP [G20P], for which the protein stability index is 2.26. The same measure for APWNYHYHCPGSPDHQVPYMHDYP [G20M]: 1.93; for APWNYHYHCPGSPDHQVPYDHDYP [G20D]: 2.95. With APWNYHYHFPGSPDHQVPYGHDYP [C9F], the protein stability index was 1.93. The same measure for APWNYHYHIPGSPDHQVPYGHDYP [C9I]: 1.85; for APWNYHYHHPGSPDHQVPYGHDYP [C9H]: 2.28. The figure for APWNYHYHMPGSPDHQVPYGHDYP [C9M] is 2.73. The figure for APWNYHYHGPGSPDHQVPYGHDYP [C9G] is 2.05; for APWNYHYHPPGSPDHQVPYGHDYP [C9P] it is 1.9. Take APWNYHYHTPGSPDHQVPYGHDYP [C9T]: the protein stability index was found to be 1.69. On to APWNYHYHVPGSPDHQVPYGHDYP [C9V], for which the protein stability index was 2.7.

APWNYSYHCPGSPDHQVPYGHDYP [H6S]: the protein stability index was determined as 3.2.

Turning to APWNYGYHCPGSPDHQVPYGHDYP [H6G], the protein stability index came to 2.96. The same measure for APWNYQYHCPGSPDHQVPYGHDYP [H6Q]: 2.97; for APWNYHYHCPWSPDHQVPYGHDYP [G11W]: 2.18. Regarding APWNYHYHCPKSPDHQVPYGHDYP [G11K], the protein stability index came to 1.92. The same measure for APWNYHYHCPQSPDHQVPYGHDYP [G11Q]: 1.63. With APWNYHYHCPESPDHQVPYGHDYP [G11E], the protein stability index worked out at 2.06. APWNYHYHCPRSPDHQVPYGHDYP [G11R]: the protein stability index stood at 2.04. The figure for APWNYHYHCPFSPDHQVPYGHDYP [G11F] is 2.73. Turning to APWNYHYHCPHSPDHQVPYGHDYP [G11H], the protein stability index is 2.11. On to APWNYHYHCPCSPDHQVPYGHDYP [G11C], for which the protein stability index was 2.02.

As for APWNYHYHCPISPDHQVPYGHDYP [G11I], the protein stability index worked out at 1.63.

Turning to APWNYHYHCPASPDHQVPYGHDYP [G11A], the protein stability index came out at 2.55. For APWNYHYHCPSSPDHQVPYGHDYP [G11S], the protein stability index was 2.12. For APWNYHYICPGSPDHQVPYGHDYP [H8I], the protein stability index amounted to 2.08. In the case of APWNYHYVCPGSPDHQVPYGHDYP [H8V], the protein stability index turned out to be 1.95. On to APWNYHYRCPGSPDHQVPYGHDYP [H8R], for which the protein stability index was 1.66.

Take APWNYHYCCPGSPDHQVPYGHDYP [H8C]: the protein stability index was 2.42. The figure for APWNYHYYCPGSPDHQVPYGHDYP [H8Y] is 1.84; for APWNYHYTCPGSPDHQVPYGHDYP [H8T] it is 2.41; for APWNYHYPCPGSPDHQVPYGHDYP [H8P] it is 1.99. As for APWNYHYHCPGSPDHQVPYGHDHP [Y23H], the protein stability index came out at 1.88. For the variant APWNYHYHCPGSPDHQVPYGHDSP [Y23S], the protein stability index amounted to 2.85. The same measure for APWNYHYHCPGSPDHQVPYGHDWP [Y23W]: 1.68. Consider APWNYHYHCPGSPDHQVPYGHDDP [Y23D], for which the protein stability index is 3.83. For the variant APWNYHYHCPGSPDHQVPYGHDVP [Y23V], the protein stability index was found to be 1.97.

Consider APWNYHYHCPGSPDHQVPYGHDEP [Y23E], for which the protein stability index was 3.61. The figure for APWNYHYHCPGSPDHQVPYGHDFP [Y23F] is 2; for APWNYHYHCPGSPDHQVPYGHDNP [Y23N] it is 2.08; for APWNYHYHCPGSPDHQVPYGHDPP [Y23P] it is 3.06.

Regarding APWNYHYHCPGSPDHQVPYGHDKP [Y23K], the protein stability index stood at 3.12. With APWNYHYHCPGSPDHQVVYGHDYP [P18V], the protein stability index was found to be 2.05. With APWNYHYHCPGSPDHQVQYGHDYP [P18Q], the protein stability index came to 2.54. For the variant APWNYHYHCPGSPDHQVWYGHDYP [P18W], the protein stability index came out at 1.71. APWNYHYHCPGSPDHQVRYGHDYP [P18R]: the protein stability index is 2. With APWNYHYHCPGSPDHQVFYGHDYP [P18F], the protein stability index was 2.23. Regarding APWNYHYHCPGSPDHQVMYGHDYP [P18M], the protein stability index worked out at 2.56. The same measure for APWNYHYHCPGSPDHQVLYGHDYP [P18L]: 2.21; for APWNYHYHCPGSPDHQVTYGHDYP [P18T]: 2.37. APWNYHYHCPGSPDHQVSYGHDYP [P18S]: the protein stability index amounted to 1.67.
